Measured values published in patent US20090087494A1 (BOARD OF REGENTS OF THE UNIVERSITY OF NEBRASKA, published 2009).

Tests used:
bovine LHRH receptor [1] = biological target: T1, bovine LHRH receptor (bovine, UniProt P32236 1-328); assay: displacement of 125I-deslorelin, bovine nasal ITP region membranes, low affinity site (IC50 II)
T1 construct: whole, on cells; The receptor stood in crude membrane preparations of bovine tissue homogenates, not on intact cells; also called GnRH receptor
T1 sequence (looked up): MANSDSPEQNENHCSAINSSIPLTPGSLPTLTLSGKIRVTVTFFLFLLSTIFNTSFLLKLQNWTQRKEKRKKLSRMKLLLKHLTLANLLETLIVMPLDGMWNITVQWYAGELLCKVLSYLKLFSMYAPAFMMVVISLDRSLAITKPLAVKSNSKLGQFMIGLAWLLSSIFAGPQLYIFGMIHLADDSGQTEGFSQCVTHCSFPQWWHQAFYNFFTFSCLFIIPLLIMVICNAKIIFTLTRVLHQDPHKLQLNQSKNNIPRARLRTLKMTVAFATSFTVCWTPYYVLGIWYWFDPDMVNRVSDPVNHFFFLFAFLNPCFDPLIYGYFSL
Procedure: (§1) Competition Studies: To determine the amount of unlabelled deslorelin required to displace the radioactivity, competition studies were conducted. Briefly, membranes were incubated with 100,000 cpm of I¹²⁵ deslorelin in the presence or absence of unlabelled deslorelin (0.01-3,000 ng) in a total volume of 200 μl for 4 hr at 4° C. Assays were performed in triplicates. At the end of 4 hr, the incubation tubes were centrifuged at 10,000 g for 20 min at 4° C. to separate the bound fraction. Radioactivity was measured in the pellet using a Perkin-Elmer γ-counter. The same controls as in the kinetic and saturation studies were used. The experiment was repeated three times.

bovine LHRH receptor [2] = biological target: T1, bovine LHRH receptor; assay: displacement of 125I-deslorelin, bovine nasal ITP region membranes, high affinity site (IC50 I)
Procedure: as §1

bovine LHRH receptor [3] = biological target: T1, bovine LHRH receptor; assay: displacement of 125I-deslorelin, bovine nasal MTA region membranes, low affinity site (IC50 II)
Procedure: as §1

bovine LHRH receptor [4] = biological target: T1, bovine LHRH receptor; assay: displacement of 125I-deslorelin, bovine pituitary membranes, high affinity site (IC50 I)
Procedure: as §1

bovine LHRH receptor [5] = biological target: T1, bovine LHRH receptor; assay: displacement of 125I-deslorelin, bovine nasal MTA region membranes, high affinity site (IC50 I)
Procedure: as §1

bovine LHRH receptor [6] = biological target: T1, bovine LHRH receptor; assay: displacement of 125I-deslorelin, bovine nasal MTP region membranes, low affinity site (IC50 II)
Procedure: as §1

bovine LHRH receptor [7] = biological target: T1, bovine LHRH receptor; assay: displacement of 125I-deslorelin, bovine pituitary membranes, low affinity site (IC50 II)
Procedure: as §1

bovine LHRH receptor [8] = biological target: T1, bovine LHRH receptor; assay: displacement of 125I-deslorelin, bovine nasal MTP region membranes, high affinity site (IC50 I)
Procedure: as §1

IC50 (bovine LHRH receptor [1]): 32.9 nM
IC50 (bovine LHRH receptor [2]): 0.102 nM
IC50 (bovine LHRH receptor [3]): 53.2 nM
IC50 (bovine LHRH receptor [4]): 0.031 nM
IC50 (bovine LHRH receptor [5]): 0.136 nM
IC50 (bovine LHRH receptor [6]): 42.1 nM
IC50 (bovine LHRH receptor [7]): 17.9 nM
IC50 (bovine LHRH receptor [8]): 0.112 nM
B1: deslorelin (peptide)
peptide: EHWSYWLRP
modifications: pGlu at position 1; D-Trp at position 6; C-terminal ProNHEt (ethylamide)
notes: Synthetic LHRH analog, gift from Balance Pharmaceuticals; also called unlabelled deslorelin; unlabeled deslorelin
